Measurements taken from US20170037117A1, “COMPOSITIONS AND METHODS FOR TREATING METABOLIC DISORDERS” (Salk Institute for Biological Studies, priority 2014, published 2017).

Key:
[1] = biological target: human α-CGRP V28A (25-37) (human); assay: Biacore SPR 25 C, Fab over peptide on SA chip; ratio to parent 25-37
[2] = biological target: human α-CGRP F27A (25-37) (human); assay: as above
[3] = biological target: human α-CGRP S34A (25-37) (human); assay: as above
[4] = biological target: human α-CGRP N31A (25-37) (human); assay: as above
[5] = biological target: human α-CGRP T30A (25-37) (human); assay: as above
[6] = biological target: human α-CGRP V32A (25-37) (human); assay: as above
[7] = biological target: human α-CGRP P29A (25-37) (human); assay: as above
[8] = biological target: human α-CGRP G33A (25-37) (human); assay: as above
[9] = biological target: human α-CGRP 1-37 (WT) (human); assay: Biacore, 37 C, Fab over biotin-CGRP on SA chip
Chain of human α-CGRP 1-37 (WT) (human) (peptide, as listed by the source): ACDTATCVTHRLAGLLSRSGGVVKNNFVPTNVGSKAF

[10] = biological target: rat α-CGRP (1-37) (rat); assay: Biacore, 37 C, Fab over biotin-CGRP on SA chip
Chain of rat α-CGRP (1-37) (rat) (peptide, as listed by the source): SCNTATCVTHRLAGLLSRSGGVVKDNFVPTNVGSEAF

[11] = biological target: human α-CGRP K35A (19-37) (human); assay: Biacore SPR 25 C, Fab over peptide on SA chip; ratio to parent 19-37
[12] = biological target: human α-CGRP fragment 25-37 (human); assay: Biacore, 25 C, Fab over biotin-fragment on SA chip
[13] = biological target: human α-CGRP fragment 19-37 (human); assay: Biacore SPR 25 C, Fab over N-biotinylated peptide on SA chip; mean ± SD of two measurements on different chips
[14] = biological target: human α-CGRP fragment 25-37 (human); assay: as above
[15] = biological target: human α-CGRP 1-37 (WT) (human); assay: Biacore, 25 C, Fab over biotin-CGRP on SA chip
[16] = biological target: human α-CGRP 1-37 (WT) (human); assay: Biacore SPR 25 C, Fab over N-biotinylated peptide on SA chip

KD (mutant/parent) [1] | KD (mutant/parent) [2] | KD (mutant/parent) [3] | KD (mutant/parent) [4] | KD (mutant/parent) [5] | KD (mutant/parent) [6] | KD (mutant/parent) [7] | KD (mutant/parent) [8] | Kd [9] | Kd [10] | KD (mutant/parent) [11] | fold lower affinity than to full length human α-CGRP [12] | Kd [13] | Kd [14] | Kd [15] | Kd [16] | Substance
1 | 1 |  |  |  |  |  |  |  |  |  |  |  |  |  |  | murine anti-CGRP monoclonal antibody 7E9, Fab fragment
0.8 | 0.8 | 0.8 | 0.3 | 0.2 | 0.9 | 0.2 | 1.3 | 139 nM | 3.4 nM | 0.3 | 6 fold | 52 nM | 296 nM | 61 nM | 60.5 nM | anti-CGRP monoclonal antibody 4901, Fab fragment
